Substrate in data set [1]: O=[N+]([O-])c1ccc(OP(=O)(O)O)cc1
It is filed as biochemical, Saccharomyces cerevisiae. The note with it: other: pNPP, 25 mM HEPES pH 7.5, 30 °C, mean of 3 ± SD.
Description: (§1) Activities towards varying concentrations of para-nitrophenyl phosphate (pNPP) were measured in 100 µL assay buffer (25 mM HEPES pH 7.5, 2 mM TCEP, 1 mM EDTA, and 150 mM NaCl) at 30 °C. Enzyme concentrations were chosen to achieve absorbance values within the linear response range while satisfying the steady-state assumption where substrate consumption was < 1%. Reactions were initiated by enzyme addition and stopped with 1 N NaOH. Absorbance at 405 nm was measured on a Synergy H1 microplate reader (BioTek) and converted to product concentration using a para-nitrophenol standard curve. Initial rates were plotted as a function of substrate concentration and fit with the Michealis-Menten equation in GraphPad Prism (Version 8) to determine kcat and KM.

Substrate in data set [2]: Cc1cc(=O)oc2c(F)c(OP(=O)(O)O)c(F)cc12
In words: purified protein, by the assay type. The following applies: other: DiFMUP, 0.5 nM enzyme, pH 7.5, 30 °C, mean of 3 ± SD.
Description: All enzyme concentrations were 0.5 nM, except for PsCdc14 and VHR, which were assayed at 2 and 5 nM, respectively. Fluorescence intensity was measured continuously on a Synergy H1 microplate reader (BioTek) with excitation and emission wavelengths set at 358 and 450 nm, respectively. Fluorescence intensity was converted to product concentration using a 6,8-difluoro-4-methylumbelliferone standard curve. Background fluorescence was subtracted from each reaction and initial rates were calculated from the slope of the linear portion of the product concentration versus time plots. kcat and KM were calculated as described above.

Substrate in data set [3]: O=[N+]([O-])c1ccc(OP(=O)(O)O)cc1
Description: as §1
It counts as biochemical, Botrytis cinerea. The following applies: other: pNPP, 25 mM HEPES pH 7.5, 30 °C, mean of 3 ± SD.

Where two headings read alike, the source gives them in different places.

B1: ScCdc14 (Saccharomyces cerevisiae S288C) (protein)
chain: MRRSVYLDNTIEFLRGRVYLGAYDYTPEDTDELVFFTVEDAIFYNSFHLDFGPMNIGHLYRFAVIFHEILNDPENANKAVVFYSSASTRQRANAACMLCCYMILVQAWTPHQVLQPLAQVDPPFMPFRDAGYSNADFEITIQDVVYGVWRAKEKGLIDLHSFNLESYEKYEHVEFGDFNVLTPDFIAFASPQEDHPKGYLATKSSHLNQPFKSVLNFFANNNVQLVVRLNSHLYNKKHFEDIGIQHLDLIFEDGTCPDLSIVKNFVGAAETIIKRGGKIAVHCKAGLGRTGCLIGAHLIYTYGFTANECIGFLRFIRPGMVVGPQQHWLYLHQNDFREWKYTTRISLKPSEAIGGLYPLISLEEYRLQKKKLKDDKRVAQNNIEGELRDLTMTPPSNGHGALSARNSSQPSTANNGSNSFKSSAVPQTSPGQPRKGQNGSNTIEDIN
notes: made in house; host or cells: E. coli BL21 AI
A word on the Km: it is the substrate concentration at which the rate is half of its maximum. By kcat is commonly meant the maximal rate divided by the concentration of active sites. The term kcat/Km denotes the second-order rate constant that governs catalysis at low substrate concentration. As to B1, in data set [1], the Km turned out to be 23 ± 1 mM, the kcat came out at 1.12 ± 0.08 s⁻¹ and the kcat/Km was found to be 50 ± 4 M⁻¹ s⁻¹. For the same protein, in data set [2], the Michaelis-Menten constant (Km) turned out to be 0.011 ± 0.003 mM, the catalytic constant (kcat) was determined as 3 ± 0.4 s⁻¹ and the specificity constant (kcat/Km) worked out at 253000 ± 34000 M⁻¹ s⁻¹.

B2: BcCdc14 (Botrytis cinerea B05.10) (protein)
chain: MHPMDYNSMLEWATLLPNDAHPGASAKKGPKDPREEDRPFHWLTYTDRLYLASYTTPPSPDTLFPYPEQQSSRRSPTKRSARAADGPSVVSDKREPPHYFSVDDTLLYNAFHHDFGPLHIGHLYRFAVQFHDILGAPENKNKPVVFWSKADARSRANAACLLATYMVLIQSWAPHLALAPIAQADPPLMPFRDAGYSQADYGITVQDVVYGVWRAKEQGFCALPQFDLEEYERYERVDQGDFNWLTPDFLAFASPQHHPVQPILPSSPLYASLPTTLEDVDTHPTLPTPFKNVLKHFTSRNIGLVVRLNSELYSPSFFTALGIEHLDMIFDDGTCPPLSVVRKFITLAHEMITVQKRGIAVHCKAGLGRTGCLIGAYLIYRYGFTANEIIAYMRFMRPGMVVGPQQHWLHLNQGTFREWWIEEQFEIRMKEKLANMAPVTPRKGHYTSKSQVVTPPNGNQRTPLGEVDNERSHSIGAQEDYLPAPTPGQPRK
For B2, in data set [3], the Km is reported as 16 ± 2 mM, the catalytic constant (kcat) turned out to be 0.38 ± 0.003 s⁻¹ and the catalytic efficiency (kcat/Km) came out at 24 ± 2 M⁻¹ s⁻¹. Further, in data set [2], the Km is 0.034 ± 0.007 mM, the kcat was 1 ± 0.2 s⁻¹ and the specificity constant (kcat/Km) was 43100 ± 11000 M⁻¹ s⁻¹.

(Values after publication PMC7374715, “Conservation of Cdc14 phosphatase specificity in plant fungal pathogens: implications for antifungal development” (Scientific Reports, 2020).)
